As a reminder, the Kd is a measure of binding affinity in units of concentration. A high value points to a looser complex.

These results are taken from patent US20120107933A1 (GOVERNMENT OF THE UNITED STATES AS REPRESENTED BY THE …, published 2012).

The target in test [1] is human mesothelin on the cell surface (A431/H9 transfectants and human cancer cell lines) (human) (UniProt Q13421). The experiment in a line: cell-based or functional assay.
Test [2] deals with rabbit IgG Fc-human mesothelin fusion protein (full-length extracellular domain, 296-581) (rabbit; human) (UniProt Q13421). The experiment in a line: SPR (Biacore T100), […], kinetic titration. In general terms: SPR reads the build-up and loss of mass on a sensor chip optically.
In test [3] the target is human mesothelin (form not stated) (human, UniProt Q13421 296-581).
Test [4] has as its target T1, mouse mesothelin (form not stated) (mouse, UniProt Q61468 298-600).
T1 sequence (looked up): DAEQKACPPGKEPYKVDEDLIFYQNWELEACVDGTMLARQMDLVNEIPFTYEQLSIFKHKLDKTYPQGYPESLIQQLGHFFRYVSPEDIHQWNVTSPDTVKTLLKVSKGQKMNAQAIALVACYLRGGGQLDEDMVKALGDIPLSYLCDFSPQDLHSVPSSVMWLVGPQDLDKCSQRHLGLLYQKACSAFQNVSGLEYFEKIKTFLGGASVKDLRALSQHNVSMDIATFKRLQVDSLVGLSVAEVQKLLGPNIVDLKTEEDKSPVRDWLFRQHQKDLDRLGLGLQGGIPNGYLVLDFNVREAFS

In test [5] the target is T2, rabbit IgG Fc-human mesothelin fusion protein (full-length extracellular domain, 296-581) (rabbit; human, UniProt Q13421 296-581).
Test [6] addresses T2, rabbit IgG Fc-human mesothelin fusion …. Description: SPR (Biacore T100), rFc-mesothelin injected over amine-coupled HN1 mAb, kinetic titration.
Description: Binding experiments were performed on a BIACORE T100 instrument (GE Healthcare, Piscataway N.J.). […] Hepes buffer (pH-7.4) is used as the running buffer. The rFc-mesothelin (20 μg/mL) was captured on the CM5 sensor chip using a manual injection targeting about 500 RU density. […] Data were fit to a simple 1:1 interaction model, a heterogeneous ligand model or a two state binding model using the global data analysis software provided by GE Healthcare (Biaevaluation 4.1).

Chain of human mesothelin on the cell surface (A431/H9 transfectants and human cancer cell lines) (human) (Q13421 other isoform, or with tags, fused parts or gaps limits assumed): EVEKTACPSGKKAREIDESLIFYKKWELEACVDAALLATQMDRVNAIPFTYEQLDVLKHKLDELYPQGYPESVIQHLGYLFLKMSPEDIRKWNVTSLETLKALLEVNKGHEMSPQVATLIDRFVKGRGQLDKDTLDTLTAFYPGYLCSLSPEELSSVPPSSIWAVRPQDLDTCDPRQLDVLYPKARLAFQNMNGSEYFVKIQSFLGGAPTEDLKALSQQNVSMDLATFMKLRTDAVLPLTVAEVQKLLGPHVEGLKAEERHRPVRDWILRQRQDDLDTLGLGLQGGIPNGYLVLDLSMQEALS
Chain of human mesothelin (form not stated) (Q13421 other isoform, or with tags, fused parts or gaps limits assumed): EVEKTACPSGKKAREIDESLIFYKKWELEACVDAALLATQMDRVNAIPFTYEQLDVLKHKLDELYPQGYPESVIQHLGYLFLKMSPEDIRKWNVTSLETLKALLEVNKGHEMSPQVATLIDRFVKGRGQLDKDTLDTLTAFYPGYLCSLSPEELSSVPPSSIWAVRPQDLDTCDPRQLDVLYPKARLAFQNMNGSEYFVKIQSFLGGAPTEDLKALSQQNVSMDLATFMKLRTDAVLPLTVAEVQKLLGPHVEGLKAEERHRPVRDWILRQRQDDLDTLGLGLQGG

Molecule “HN1 scFv immunotoxin (HN1 scFv fused to truncated Pseudomonas exotoxin PE38) (from UniProt P11439 278-389; P11439 406-638)” displayed a Cytotoxic Assays (WST), IC50 of cell viability, H226 cells in test [1] of 13 ng/mL. In addition, the Kd in test [2] stood at 100 nM.
Consider HA22, an anti-CD22 scFv, for which, in test [1], the Cytotoxic Assays (WST), IC50 of cell viability, H9 cells is over 1000 ng/mL and the Cytotoxic Assays (WST), IC50 of cell viability, H226 cells was over 1000 ng/mL.

B1: HN2 antibody (form not stated) (antibody, V domains shown)
VH: EVQLLESGGGLVQPGGSLRPSCAASGFTFSSYAMSWVRQAPGKGLEWVSAISGSGGSTHYADSVKGRFTISRDNSKNTLYLQMNSLRAEDTAVYYCVRGGALGFDNWGRGTMVTVSS
VL: VLTQPPSVSEAPRQRVTISCSGSTSNIGSNVVNWYQQFPGKPPKVVIYYDDLVASGVSDRFSGSRSGTSASLAISGLQSEDEADYYCSAWDDSLNAWVFGGGTKVTV
For B1, the Kd in test [3] and in test [4] was about 1.5 nM each time.

B2: HN1 fully human IgG (IgG gamma1 kappa) (antibody, V domains shown)
VH: QVQLVQSGAEVKRPGASVQVSCRASGYSINTYYMQWVRQAPGAGLEWMGVINPSGVTSYAQKFQGRVTLTNDTSTNTVYMQLNSLTSADTAVYYCARWALWGDFGMDVWGKGTLVTVSS
VL: DIQMTQSPSTLSASIGDRVTITCRASEGIYHWLAWYQQKPGKAPKLLIYKASSLASGAPSRFSGSGSGTDFTLTISSLQPDDFATYYCQQYSNYPLTFGGGTKLEIKR
notes: also called HN1 IgG; HN1 mAb
In the case of B2, the “fold better affinity than the scFv molecule” value in test [5] is over 30 fold. In test [6], the Kd came to 3 nM.

B3: HN1 antibody (form not stated) (antibody, V domains shown)
VH: B2 VH
VL: DIQMTQSPSTLSASIGDRVTITCRASEGIYHWLAWYQQKPGKAPKLLIYKASSLASGAPSRFSGSGSGTDFTLTISSLQPDDFATYYCQQYSNYPLTFGGGTKLEIK
On to B3, for which the equilibrium dissociation constant (Kd) in test [3] is about 7.5 nM.
